In US20110200585A1:

How the values were obtained:
[1] = biological target: Mouse FcRn (mouse) (UniProt Q61559); test: SPR, ProteOn XPR36; antibody amine-coupled to GLM chip, FcRn 8-2048 nM as analyte, equilibrium fit, pH 6.0
[2] = biological target: Cyno FcRn (cyno) (UniProt Q8SPV9); test: as above
[3] = biological target: Human FcRn (human) (UniProt P55899); test: as above
[4] = biological target: rat FcRn (rat) (UniProt P13599); test: as above
[5] = biological target: Fcγ3a (Phe) (UniProt P08637); test: SPR, ProteOn XPR36; antibody amine-coupled to GLM chip, receptor 8-2048 nM as analyte, equilibrium fit, pH 7.4
[6] = biological target: Fcγ1 (UniProt P12314); test: as above
[7] = biological target: Fcγ (Val) (UniProt P08637); test: as above
[8] = biological target: Fcγ2a (Arg) (UniProt P12318); test: as above
Chain of Fcγ2a (Arg) (P12318 34-217 H167R): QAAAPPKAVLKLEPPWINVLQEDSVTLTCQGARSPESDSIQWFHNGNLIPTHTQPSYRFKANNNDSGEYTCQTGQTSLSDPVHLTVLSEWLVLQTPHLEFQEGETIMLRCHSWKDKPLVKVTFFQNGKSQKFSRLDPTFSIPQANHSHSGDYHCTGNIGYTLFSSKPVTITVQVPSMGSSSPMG

Chain of Mouse FcRn (mouse) (Q61559 22-297 limits assumed, form in doubt, chain 1 of 2): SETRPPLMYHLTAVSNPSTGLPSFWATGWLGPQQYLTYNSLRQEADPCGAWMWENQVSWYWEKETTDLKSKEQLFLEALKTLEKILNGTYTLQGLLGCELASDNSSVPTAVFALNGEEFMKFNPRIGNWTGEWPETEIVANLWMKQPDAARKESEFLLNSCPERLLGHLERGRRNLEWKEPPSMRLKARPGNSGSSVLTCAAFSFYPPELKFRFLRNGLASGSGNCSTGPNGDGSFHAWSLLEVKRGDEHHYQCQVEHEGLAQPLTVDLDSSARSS
Chain of Mouse FcRn (mouse) (chain, as listed by the source limits assumed, form in doubt, chain 2 of 2): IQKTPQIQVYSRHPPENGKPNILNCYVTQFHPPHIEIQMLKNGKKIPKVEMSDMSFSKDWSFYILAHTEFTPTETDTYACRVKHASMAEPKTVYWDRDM
Chain of rat FcRn (rat) (P13599 23-298 limits assumed, form in doubt, chain 1 of 2): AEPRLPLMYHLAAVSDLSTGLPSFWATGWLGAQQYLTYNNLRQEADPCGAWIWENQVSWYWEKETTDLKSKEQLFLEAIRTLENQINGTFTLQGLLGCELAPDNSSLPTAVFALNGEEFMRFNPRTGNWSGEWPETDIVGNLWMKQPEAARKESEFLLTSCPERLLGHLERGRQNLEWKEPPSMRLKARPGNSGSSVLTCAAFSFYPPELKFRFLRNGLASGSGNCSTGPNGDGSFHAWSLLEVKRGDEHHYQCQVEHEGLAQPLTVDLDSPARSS
Chain of rat FcRn (rat) (chain, as listed by the source limits assumed, form in doubt, chain 2 of 2): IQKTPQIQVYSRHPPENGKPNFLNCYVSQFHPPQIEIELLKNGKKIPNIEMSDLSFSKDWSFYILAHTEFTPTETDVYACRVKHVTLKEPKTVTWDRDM
Chain of Human FcRn (human) (P55899 24-297 limits assumed, chain 1 of 2): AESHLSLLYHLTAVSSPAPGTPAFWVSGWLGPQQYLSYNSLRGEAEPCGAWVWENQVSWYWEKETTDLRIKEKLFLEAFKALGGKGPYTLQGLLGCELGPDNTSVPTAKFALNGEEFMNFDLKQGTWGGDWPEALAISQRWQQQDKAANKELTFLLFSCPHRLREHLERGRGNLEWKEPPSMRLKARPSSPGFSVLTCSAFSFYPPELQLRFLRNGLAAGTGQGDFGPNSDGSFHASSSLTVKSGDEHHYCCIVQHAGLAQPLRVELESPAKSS
Chain of Human FcRn (human) (chain, as listed by the source limits assumed, chain 2 of 2): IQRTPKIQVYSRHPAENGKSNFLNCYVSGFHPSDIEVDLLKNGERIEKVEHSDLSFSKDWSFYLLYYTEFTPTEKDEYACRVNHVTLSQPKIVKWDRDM
Chain of Fcγ3a (Phe) (P08637 17-208): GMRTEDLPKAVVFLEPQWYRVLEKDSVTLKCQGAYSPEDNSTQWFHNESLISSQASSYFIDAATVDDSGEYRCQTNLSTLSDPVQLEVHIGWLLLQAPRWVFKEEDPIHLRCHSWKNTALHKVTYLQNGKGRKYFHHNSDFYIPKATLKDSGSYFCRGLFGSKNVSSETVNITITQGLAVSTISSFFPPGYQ
Chain of Fcγ1 (P12314 16-288): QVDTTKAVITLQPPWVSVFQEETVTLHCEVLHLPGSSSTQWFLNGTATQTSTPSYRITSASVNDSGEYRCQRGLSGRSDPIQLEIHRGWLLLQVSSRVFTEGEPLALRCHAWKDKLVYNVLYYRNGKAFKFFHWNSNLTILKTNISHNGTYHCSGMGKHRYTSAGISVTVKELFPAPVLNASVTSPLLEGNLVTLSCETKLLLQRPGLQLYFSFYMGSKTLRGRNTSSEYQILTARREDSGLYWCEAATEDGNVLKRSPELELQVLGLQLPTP
Chain of Fcγ (Val) (P08637 17-208 F176V): as the sequence (P08637 17-208) above, with F160V counted along it

| Substance | Kd [1] [nM] | Kd [2] [nM] | Kd [3] [nM] | Kd [4] [nM] | Kd [5] [nM] | Kd [6] [nM] | Kd [7] [nM] | Kd [8] [nM] |
| --- | --- | --- | --- | --- | --- | --- | --- | --- |
| Control Ab (Fc WT) (antibody) | 160 | 156 | 95 | 112 | 1840 | 14.9 | 442 | 1290 |
| Control Ab (Fc disabled) (antibody) | 171 | 195 | 154 | 118 |  |  |  |  |
